# Publication PMC11852929 (Journal of Virology, 2025)
# Biological target: T1, SARS-CoV-2 Omicron BA.5 S ectodomain trimer (BA.5-Spike-6P) (SARS-CoV-2 Omicron BA.5, S375F | D405N | R408S | K417N | Q498R | N501Y | Y505H)
# T1 construct: also called BA.5 spike (S) trimer; BA.5 S trimer
# Test: cryo-EM structure
# Settings: both partners purified
binder,measurement,value
"ORB10 fragment antigen-binding region (Fab) (Fab, V domains shown, also called ORB10 Fab) VH: QVQLQQSGAELVRPGSSVKISCKASGYAFSNYWMNWVKQRPGEGLEWIGQIYPGDGDTDYNGKFKGRATLTADKSSSTAYMQLSSLTSEDSAVYFCARGDDGYYVYFDYWGQGTTLTVSS VL: EIVLTQSPALMAASPGEKVTITCSVSSSIGSNNLHWYQQKSETSPKPWIYGTSNLASGVPVRFSGSGSGTSYSLTISTMEAEDAATYYCQQWSGYPLTFGGGTKLEIK",stoichiometry N,2 Fabs per S trimer
